# B1: 71G2 chimeric llama-human IgG1 mAb (antibody, V domains shown)
# VH: EVQLQESGGGLVQPGGSLRLSCAASGFTFSIYDMSWVRQAPGKGLEWVSTINSDGSSTSYVDSVKGRFTISRDNAKNTLYLQMNSLKPEDTAVYYCAKVYGSTWDVGPMGYGMDYWGKGTLVTVSS
# VL: SSALTQPSALSVSLGQTARITCQGGSLGSSYAHWYQQKPGQAPVLVIYGDDSRPSGIPERFSGSSSGGTATLTISGAQAEDEDDYYCQSTDSSGNTVFGGGTRLTVL
# notes: llama VH on human IgG1 CH1-CH2-CH3, llama VL on human lambda CL
# B2: 76H10 chimeric llama-human IgG1 mAb (antibody, V domains shown)
# VH: QLQLVESGGGLVQPGGSLRVSCTASGFTFNTYYMTWVRQAPGKGLEWVSDINSGGGTYYADSVKGRFTISRDNAKNTLYLQMNSLKPEDTALYYCVRVRIWPVGYDYWGQGTQVTVSS
# VL: QAVVTQEPSLSVSPGGTVTLTCGLSSGSVTTSNYPGWFQQTPGQAPRTLIYNTNNRHSGVPSRFSGSISGNKAALTITGAQPEDEADYYCSLYTGSYTTVFGGGTHLTVL
# notes: as for B1
# Columns and labels:
# human MET ECD [1] = target: T1, human MET ECD (human, UniProt P08581 25-932); test: ELISA, MET ECD in solid phase, mAb 0-50 nM
# T1 construct: range 1-932; recombinant ECD made by the applicants; the stated range begins at residue 1, so it includes the signal peptide of the entry; also called hMET; hMET ECD
# T1 sequence (P08581 25-932 limits assumed, form in doubt): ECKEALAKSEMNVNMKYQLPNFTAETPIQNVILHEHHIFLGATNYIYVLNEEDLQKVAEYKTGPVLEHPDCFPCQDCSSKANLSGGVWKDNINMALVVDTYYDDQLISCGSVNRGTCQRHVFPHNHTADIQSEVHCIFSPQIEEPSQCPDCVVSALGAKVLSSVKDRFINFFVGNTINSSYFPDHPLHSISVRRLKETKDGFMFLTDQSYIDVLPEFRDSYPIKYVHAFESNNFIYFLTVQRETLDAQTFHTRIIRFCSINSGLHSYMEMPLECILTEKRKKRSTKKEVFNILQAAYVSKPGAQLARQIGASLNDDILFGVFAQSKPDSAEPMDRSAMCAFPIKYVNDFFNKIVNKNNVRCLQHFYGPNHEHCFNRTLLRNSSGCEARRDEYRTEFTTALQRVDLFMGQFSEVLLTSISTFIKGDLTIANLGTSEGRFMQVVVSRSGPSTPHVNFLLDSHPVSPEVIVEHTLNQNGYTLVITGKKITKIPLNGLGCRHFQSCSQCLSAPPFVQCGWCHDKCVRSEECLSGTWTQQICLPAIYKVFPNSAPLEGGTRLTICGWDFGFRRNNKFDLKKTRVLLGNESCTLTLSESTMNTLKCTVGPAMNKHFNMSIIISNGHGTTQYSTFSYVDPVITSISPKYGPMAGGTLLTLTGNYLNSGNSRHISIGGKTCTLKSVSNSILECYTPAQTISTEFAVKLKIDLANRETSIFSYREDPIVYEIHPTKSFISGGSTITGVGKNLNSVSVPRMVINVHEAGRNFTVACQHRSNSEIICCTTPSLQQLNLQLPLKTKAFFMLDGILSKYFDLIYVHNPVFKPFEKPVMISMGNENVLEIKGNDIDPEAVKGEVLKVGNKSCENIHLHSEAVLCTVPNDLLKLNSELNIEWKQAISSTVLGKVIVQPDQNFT
# Experimental: Using human MET as a template, we mutagenized each of these residues in different permutations, generating a series of MET mutants that are fully human except for specific residues, which are llama. Next, we tested the affinity of selected SEMA-binding mAbs (71D6, 71C3, 71D4, 71A3, 71G2) and PSI-binding mAbs (76H10 and 71G3) for these MET mutants by ELISA. To this end, the various MET proteins were immobilized in solid phase (100 ng/well in a 96-well plate) and then exposed to increasing concentrations of antibodies (0-50 nM) solution. […] Wild-type human MET was used as positive control.
# TABLE 18 The epitopes of MET responsible for agonistic antibody binding represent residues conserved among H. sapiens, M. musculus, R. norvegicus, M. fascicularis but not among the same species and L. glama. The relevance of residues conserved among human, mouse, rat, cynomolgus monkey but not llama MET for binding to agonistic mAbs was tested by ELISA. Wild-type (WT) or mutant (MT) human MET ECD was immobilized in solid phase and exposed to increasing concentrations of mAbs in solution. […] All binding values were normalized to the WT protein and are expressed as % binding (EMAX) compared to WT MET.
# [2] = target: human MET ECD mutant D (mutations 1, 2) (human) (UniProt P08581); test: ELISA, MET ECD in solid phase, mAb 0-50 nM
# [3] = target: human MET ECD mutant H (mutations 2, 4) (human) (UniProt P08581); test: ELISA, MET ECD in solid phase, mAb 0-50 nM
# [4] = target: human MET ECD mutant E (mutations 2, 3, 4) (human) (UniProt P08581); test: ELISA, MET ECD in solid phase, mAb 0-50 nM
# [5] = target: human MET ECD mutant A (mutations 1, 2, 3) (human) (UniProt P08581); test: ELISA, MET ECD in solid phase, mAb 0-50 nM
# [6] = target: T2, native mouse MET on living cells (mouse, UniProt P16056 25-1379); test: flow cytometry, MLP29 cells
# T2 construct: whole, on cells; also called Mouse cells (MLP29); mouse epithelial cells expressing MET
# How it was run: (§1)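 Chimeric anti-MET antibodies were incubated with living cells expressing native MET, human on A549 and mouse on MLP29. Binding was detected by flow cytometry with phycoerythrin-conjugated anti-human IgG1. Commercial anti-MET antibodies with matching PE secondaries served as positive controls.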
# [7] = target: T3, mouse MET-Fc (R&D Systems) (mouse, UniProt P16056 25-929, limits assumed); test: competition ELISA, mMET-Fc in solid phase, competitor 0.3 nM biotinylated mHGF
# T3 construct: bought chimeric protein; also called mMET; not shown: Fc part
# How it was run: (§2)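 Immobilized human or mouse MET-Fc was exposed to 0.3 nM N-terminally biotinylated HGF of matching species with antibodies at 0–120 nM. Competition given as IC₅₀ (antibody concentration for 50% competition) and IMAX (maximum % competition at saturation).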
# human MET ECD [8] = target: T1, human MET ECD; test: ELISA, MET ECD in solid phase, mAb 0-20 nM
# How it was run: (§3)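 Chimeric llama-human IgG1 mAbs, transiently expressed in mammalian cells and protein A-purified, were titrated in solution at 0-20 nM against immobilized hMET or mMET ECD. Binding read by ELISA.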
# mouse MET ECD = target: T4, mouse MET ECD (mouse, UniProt P16056 25-931); test: ELISA, MET ECD in solid phase, mAb 0-20 nM
# T4 construct: range 1-931; recombinant ECD made by the applicants; the stated range begins at residue 1; also called mMET; mMET ECD
# How it was run: as §3
# [9] = target: T5, native human MET on living cells (human, UniProt P08581 25-1390); test: cell-based or functional assay
# T5 sequence (P08581 25-1390): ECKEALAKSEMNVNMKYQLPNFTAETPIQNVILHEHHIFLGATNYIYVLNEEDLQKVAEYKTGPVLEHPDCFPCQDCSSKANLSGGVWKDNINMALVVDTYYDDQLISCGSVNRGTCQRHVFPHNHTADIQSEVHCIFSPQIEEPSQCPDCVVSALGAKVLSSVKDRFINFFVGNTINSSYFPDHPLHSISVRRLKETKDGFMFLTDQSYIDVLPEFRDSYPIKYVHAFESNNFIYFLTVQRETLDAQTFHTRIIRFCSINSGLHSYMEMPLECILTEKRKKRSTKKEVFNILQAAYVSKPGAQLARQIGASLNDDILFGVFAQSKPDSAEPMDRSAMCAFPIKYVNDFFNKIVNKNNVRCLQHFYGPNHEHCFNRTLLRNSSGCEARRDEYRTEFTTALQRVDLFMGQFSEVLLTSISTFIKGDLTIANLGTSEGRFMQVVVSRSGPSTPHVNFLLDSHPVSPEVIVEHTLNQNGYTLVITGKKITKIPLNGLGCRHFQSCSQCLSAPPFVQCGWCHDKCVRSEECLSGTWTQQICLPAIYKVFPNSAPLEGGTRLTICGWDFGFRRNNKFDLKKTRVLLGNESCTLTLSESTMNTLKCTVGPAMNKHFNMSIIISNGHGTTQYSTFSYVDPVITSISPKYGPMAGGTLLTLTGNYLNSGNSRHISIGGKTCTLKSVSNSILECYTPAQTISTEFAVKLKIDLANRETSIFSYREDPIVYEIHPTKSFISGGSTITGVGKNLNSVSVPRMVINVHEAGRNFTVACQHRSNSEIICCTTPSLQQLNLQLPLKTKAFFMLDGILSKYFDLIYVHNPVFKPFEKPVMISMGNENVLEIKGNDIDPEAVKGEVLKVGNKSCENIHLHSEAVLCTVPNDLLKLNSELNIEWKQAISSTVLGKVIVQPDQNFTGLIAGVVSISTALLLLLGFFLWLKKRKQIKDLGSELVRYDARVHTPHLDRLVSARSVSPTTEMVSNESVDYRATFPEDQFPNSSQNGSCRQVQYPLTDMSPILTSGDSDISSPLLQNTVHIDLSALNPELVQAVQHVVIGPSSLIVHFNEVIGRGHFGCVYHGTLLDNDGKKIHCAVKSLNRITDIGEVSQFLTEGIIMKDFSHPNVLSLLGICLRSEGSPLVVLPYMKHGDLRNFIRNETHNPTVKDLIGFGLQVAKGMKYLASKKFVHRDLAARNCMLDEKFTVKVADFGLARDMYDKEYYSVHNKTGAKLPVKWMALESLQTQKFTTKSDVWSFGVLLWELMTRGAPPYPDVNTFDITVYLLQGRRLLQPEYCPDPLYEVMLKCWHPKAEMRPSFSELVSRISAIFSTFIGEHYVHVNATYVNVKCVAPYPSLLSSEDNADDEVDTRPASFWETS
# [10] = target: T2, native mouse MET on living cells; test: cell-based or functional assay
# [11] = target: T5, native human MET on living cells; test: cell-based or functional assay; remark: listed apart in the source
# [12] = target: T2, native mouse MET on living cells; test: cell-based or functional assay; remark: listed apart in the source
# [13] = target: T5, native human MET on living cells; test: flow cytometry, A549 cells
# How it was run: as §1
# [14] = target: T5, native human MET on living cells; test: cell-based or functional assay; remark: listed apart in the source
# [15] = target: T2, native mouse MET on living cells; test: cell-based or functional assay; remark: listed apart in the source
# [16] = target: T5, native human MET on living cells; test: cell-based or functional assay; remark: listed apart in the source
# [17] = target: T2, native mouse MET on living cells; test: cell-based or functional assay; remark: listed apart in the source
# [18] = target: T6, human MET-Fc (R&D Systems) (human, UniProt P08581 25-932); test: competition ELISA, hMET-Fc in solid phase, competitor 0.3 nM biotinylated hHGF
# T6 construct: extracellular domain; bought chimeric protein; also called hMET; not shown: Fc portion of human IgG1
# T6 sequence (P08581 25-932): as the sequence (P08581 25-932 limits assumed, form in doubt) above
# How it was run: as §2
# [19] = target: human MET ECD mutant I (mutations 6, 7, 8) (human) (UniProt P08581); test: ELISA, MET ECD in solid phase, mAb 0-50 nM
# [20] = target: human MET ECD mutant J (mutations 6, 7) (human) (UniProt P08581); test: ELISA, MET ECD in solid phase, mAb 0-50 nM
binder,measurement,setting,value
B1,% binding (EMAX) compared to WT MET,human MET ECD [1],100 % WT MET ECD
same,% binding (EMAX) compared to WT MET,[2],114 % WT MET ECD
same,% binding (EMAX) compared to WT MET,[3],40.2 % WT MET ECD
same,% binding (EMAX) compared to WT MET,[4],41.4 % WT MET ECD
same,% binding (EMAX) compared to WT MET,[5],92.1 % WT MET ECD
same,EC50,[6],0.688 nM
same,EMAX,[6],130 % relative to control
same,IC50,[7],0.26 nM
same,IMAX,[7],91.9%
same,EC50,human MET ECD [8],0.112 nM
same,EMAX (OD450),human MET ECD [8],3.09 AU
same,EC50,mouse MET ECD,0.101 nM
same,EMAX (OD450),mouse MET ECD,3.17 AU
same,"branches per spheroid, LOC cells, 0.5 nM",[9],25.3 branches
same,"branches per spheroid, LOC cells, 2.5 nM",[9],29.3 branches
same,"branches per spheroid, LOC cells, 12.5 nM",[9],31.7 branches
same,"branches per spheroid, MLP29 cells, 0.5 nM",[10],34 branches
same,"branches per spheroid, MLP29 cells, 2.5 nM",[10],46.3 branches
same,"branches per spheroid, MLP29 cells, 12.5 nM",[10],45 branches
same,"protection from staurosporine, viability EC50, MCF10A cells",[11],1.06 nM
same,"protection from staurosporine, viability EMAX, MCF10A cells",[11],64.8%
same,"protection from staurosporine, viability EC50, MLP29 cells",[12],1.99 nM
same,"protection from staurosporine, viability EMAX, MLP29 cells",[12],58.3%
same,EC50,[13],0.604 nM
same,EMAX,[13],144 % relative to control
same,"scatter score 0-4, HPAF-II, 0.001 nM",[14],0 score
same,"scatter score 0-4, HPAF-II, 0.004 nM",[14],1 score
same,"scatter score 0-4, HPAF-II, 0.012 nM",[14],2 score
same,"scatter score 0-4, HPAF-II, 0.037 nM",[14],3 score
same,"scatter score 0-4, HPAF-II, 0.111 nM",[14],4 score
same,"scatter score 0-4, HPAF-II, 0.333 nM",[14],4 score
same,"scatter score 0-4, HPAF-II, 1.000 nM",[14],4 score
same,"scatter score 0-4, HPAF-II, 3.000 nM",[14],4 score
same,"scatter score 0-4, HPAF-II, 9.000 nM",[14],4 score
same,"scatter score 0-4, MLP29, 0.001 nM",[15],0 score
same,"scatter score 0-4, MLP29, 0.004 nM",[15],0 score
same,"scatter score 0-4, MLP29, 0.012 nM",[15],1 score
same,"scatter score 0-4, MLP29, 0.037 nM",[15],2 score
same,"scatter score 0-4, MLP29, 0.111 nM",[15],4 score
same,"scatter score 0-4, MLP29, 0.333 nM",[15],4 score
same,"scatter score 0-4, MLP29, 1.000 nM",[15],4 score
same,"scatter score 0-4, MLP29, 3.000 nM",[15],4 score
same,"scatter score 0-4, MLP29, 9.000 nM",[15],4 score
same,"phospho-MET ELISA EC50, A549 cells",[16],0.37 nM
same,"phospho-MET ELISA EMAX (% HGF activity), A549 cells",[16],101%
same,"phospho-MET ELISA EC50, MLP29 cells",[17],0.25 nM
same,"phospho-MET ELISA EMAX (% HGF activity), MLP29 cells",[17],110%
same,IC50,[18],0.23 nM
same,IMAX,[18],97.8%
B2,% binding (EMAX) compared to WT MET,[19],100 % WT MET ECD
same,% binding (EMAX) compared to WT MET,[20],89 % WT MET ECD
same,EC50,[6],1.6 nM
same,EMAX,[6],124 % relative to control
same,IC50,[7],2.01 nM
same,IMAX,[7],62.7%
same,EC50,human MET ECD [8],0.09 nM
same,EMAX (OD450),human MET ECD [8],2.67 AU
same,EC50,mouse MET ECD,0.062 nM
same,EMAX (OD450),mouse MET ECD,2.66 AU
same,"branches per spheroid, LOC cells, 0.5 nM",[9],7.3 branches
same,"branches per spheroid, LOC cells, 2.5 nM",[9],11.7 branches
same,"branches per spheroid, LOC cells, 12.5 nM",[9],16.7 branches
same,"branches per spheroid, MLP29 cells, 0.5 nM",[10],10.7 branches
same,"branches per spheroid, MLP29 cells, 2.5 nM",[10],14.3 branches
same,"branches per spheroid, MLP29 cells, 12.5 nM",[10],24.7 branches
same,"protection from staurosporine, viability EC50, MCF10A cells",[11],> 32 nM
same,"protection from staurosporine, viability EMAX, MCF10A cells",[11],22.8%
same,"protection from staurosporine, viability EC50, MLP29 cells",[12],> 32 nM
same,"protection from staurosporine, viability EMAX, MLP29 cells",[12],27.2%
same,EC50,[13],2.35 nM
same,EMAX,[13],130 % relative to control
same,"scatter score 0-4, HPAF-II, 0.001 nM",[14],0 score
same,"scatter score 0-4, HPAF-II, 0.004 nM",[14],0 score
same,"scatter score 0-4, HPAF-II, 0.012 nM",[14],0 score
same,"scatter score 0-4, HPAF-II, 0.037 nM",[14],0 score
same,"scatter score 0-4, HPAF-II, 0.111 nM",[14],0 score
same,"scatter score 0-4, HPAF-II, 0.333 nM",[14],0 score
same,"scatter score 0-4, HPAF-II, 1.000 nM",[14],1 score
same,"scatter score 0-4, HPAF-II, 3.000 nM",[14],2 score
same,"scatter score 0-4, HPAF-II, 9.000 nM",[14],3 score
same,"scatter score 0-4, MLP29, 0.001 nM",[15],0 score
same,"scatter score 0-4, MLP29, 0.004 nM",[15],0 score
same,"scatter score 0-4, MLP29, 0.012 nM",[15],0 score
same,"scatter score 0-4, MLP29, 0.037 nM",[15],0 score
same,"scatter score 0-4, MLP29, 0.111 nM",[15],0 score
same,"scatter score 0-4, MLP29, 0.333 nM",[15],0 score
same,"scatter score 0-4, MLP29, 1.000 nM",[15],1 score
same,"scatter score 0-4, MLP29, 3.000 nM",[15],2 score
same,"scatter score 0-4, MLP29, 9.000 nM",[15],3 score
same,"phospho-MET ELISA EC50, A549 cells",[16],1.77 nM
same,"phospho-MET ELISA EMAX (% HGF activity), A549 cells",[16],61.2%
same,"phospho-MET ELISA EC50, MLP29 cells",[17],2.91 nM
same,"phospho-MET ELISA EMAX (% HGF activity), MLP29 cells",[17],64.1%
same,IC50,[18],1.86 nM
same,IMAX,[18],64.2%
